Data from EP4628892A1 (Korea Research Institute of Bioscience and Biotechnology, dated 2025).

B1: H6HE2L antibody (antibody, human IgG1, kappa, V domains shown)
VH: QMQLVQSGGGLEQPGRSLRLSCVTSGFNFNDYAMHWVRQAPGKGLEWVSGISWNSGAIGYADSVKGRFTVSRDNSKNSLYLQMNSLRAEDTAVYYCARDYNYETSGYYHGFDNWGQGTLVTVSS
VL: DIQMTQSPSSVSASVGDRVTITCRASQGISRWLSWYQQKPGKAPKLLIYAASNLQSGVPLRFSGSGSGTDFTLTINSLQPEDSATYYCQQTNNFPYTFGQGTKVEIKR
notes: Optimized from CSA108
B2: C1HE2E6 antibody (antibody, human IgG1, kappa, V domains shown)
VH: QMQLVQSGGGLEQPGRSLRLSCVTSGFNFNDYAMHWVRQAPGKGLEWVSGISWNSGAIGYADSVKGRFTVSRDNSKNSLYLQMNSLRAEDTAVYYCARDYNYEISGYYYGFDNWGQGTLVTVSS
VL: DIQMTQSPSSVSASVGDRVTITCRASQGISRWLSWYQQKPGKAPKLLIYAASNLQSGVPLRFSGSGFGTDFTLTINSLQPEDSATYYCQQTNNFPYTFGQGTKVEIKR
notes: Optimized from CSA108
B3: CSA108 antibody (antibody, human IgG1, kappa, V domains shown)
VH: QMQLVQSGGGLEQPGRSLRLSCVTSGFNFNDYAMHWVRQAPGKGLEWVSGISWNSGAIGYADSVKGRFTVSRDNSKNSLYLQMNSLRAEDTAVYYCARDYYYETSGYYYGFDNWGQGTLVTVSS
VL: DIQMTQSPSSVSASVGDRVTITCRASQGISRWLAWYQQKPGKAPKLLIYAASNLQSGVPLRFSGSGSGTDFTLTINSLQPEDSATYYCQQTNNFPYTFGQGTKVEIKR
notes: also called anti-NgR1 antibody CSA108
B4: CSA123 antibody (antibody, human IgG1, kappa, V domains shown)
VH: QMQLVQSGAEVKKPGASVKVSCKVSGYTLSELSIHWVRQAPGKGLEWMGGFDPEDDETVYAQKFQGRVTLTDDTSTDTAYMELSSLRSEDTAVYYCARDLGYLTSGNYYDAFDIWGRGTMITVSS
VL: DIQMTQSPSSVSASVGDRVTITCRASQDINRWLAWYQQKPGKAPKLLIYAASRLQSGVPLRFSGSGSGTDFTLTINSLQPEDSATYYCQQTNNFPRTFGQGTRLEIKR
notes: also called anti-NgR1 antibody CSA123
B5: D11 antibody (antibody, human IgG1, kappa, V domains shown)
VH: QMQLVQSGAEVKKPGASVKVSCKVSGYTLSELSIHWVRQAPGKGLEWMGGFDSEDDETVYAQKFQGRVTLTDDTSTDTAYMELSSLRSEDTAVYYCARDLGYLTSGNYYDAFDFWGRGTMITVSS
VL: DIQMTQSPSSVSASVGDRVTITCRASQDINRWLAWYQQKPGKAPKLLIYAASRLQSGVPLRFSGSGSGTDFTLTINSLQPEDSATYYCQQTNNFPRTFGQGTRLEIKR
notes: Optimized from CSA123
B6: G8 antibody (antibody, human IgG1, kappa, V domains shown)
VH: QMQLVQSGAEVKKPGASVKVSCKVSGYPLSELSIHWVRQAPGKGLEWMGGFDSEDDETVYAQKFQGRVTLTDDTSTDTAYMELSSLRSEDTAVYYCARDLGYLTSGNYYDAFGIWGRGTMITVSS
VL: DIQMTQSPSSVSASVGDRVTITCRASQDINRWLAWYQQKPGKAPKLLIYAASRLQSGVPLRFSGSGSGTDFTLTINSLQPEDSATYYCQQTNNFPRTFGQGTRLEIKR
notes: Optimized from CSA123
B7: S3 antibody (antibody, human IgG1, kappa, V domains shown)
VH: QMQLVQSGAEVKKPGASVKVSCKVSGYTLSELSIHWVRQAPGKGLEWMGGFDPEDDETVYAQKFQGRVTLTDDTSTDTAYMELSSLRSEDTAVYYCARDLGYLTSGNYYNAFGIWGRGTMITVSS
VL: DIQMTQSPSSVSASVGDRVTITCRASQDINRWLAWYQQKPGKAPKLLIYAASRLQSGVPLRFSGSGSGTDFTLTINSLQPEDSATYYCQQTNNFPRTFGQGTRLEIKR
notes: Optimized from CSA123
B8: S6 antibody (antibody, human IgG1, kappa, V domains shown)
VH: QMQLVQSGAEVKKPGASVKVSCKVSGYTLSGLSIHWVRQAPGKGLEWMGGFDSEDDETVYAQKFQGRVTLTDDTSTDTAYMELSSLRSEDTAVYYCARDLGYLTSGNYYDAFDIWGRGTMITVSS
VL: DIQMTQSPSSVSASVGDRVTITCRASQDINRWLAWYQQKPGKAPKLLIYAASRLQSGVPLRFSGSGSGTDFTLTINSLQPEDSATYYCQQTNNFPRTFGQGTRLEIKR
notes: Optimized from CSA123

What follows are binders tested against T1, hNgR1-his (human, UniProt Q9BZR6 27-447, limits assumed) (assay: SPR, Biacore T200; IgG1 captured on Protein A chip, hNgR1-his flowed at different concentrations).
T1 construct: Soluble antigen flowed over antibodies captured on Protein A chips; also called antigen protein (hNgR1-his); the antigen; not shown: histidine tag
T1 sequence (looked up): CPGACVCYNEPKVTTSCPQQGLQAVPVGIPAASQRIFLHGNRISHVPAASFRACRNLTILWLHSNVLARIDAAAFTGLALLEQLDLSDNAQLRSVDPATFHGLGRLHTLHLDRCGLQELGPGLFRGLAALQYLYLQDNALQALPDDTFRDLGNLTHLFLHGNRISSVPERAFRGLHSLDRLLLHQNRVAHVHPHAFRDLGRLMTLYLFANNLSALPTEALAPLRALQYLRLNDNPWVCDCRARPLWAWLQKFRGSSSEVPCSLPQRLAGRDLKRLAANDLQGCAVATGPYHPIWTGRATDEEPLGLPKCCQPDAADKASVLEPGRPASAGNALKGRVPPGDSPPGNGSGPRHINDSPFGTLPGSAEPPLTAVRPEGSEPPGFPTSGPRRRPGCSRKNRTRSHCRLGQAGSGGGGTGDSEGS

| Binder | Kd [nM] |
| --- | --- |
| B1 | 1.69 |
| B2 | 0.194 |
| B3 | 23.3 |
| B4 | 31.5 |
| B5 | 5.33 |
| B6 | 4.15 |
| B7 | 5.84 |
| B8 | 5.51 |
